Where no end group is shown, it is not given here.
T1: endogenous Nup50 (human, UniProt Q9UKX7 1-468, limits assumed)
T1 construct: Detected with anti-Nup50
T1 sequence (looked up): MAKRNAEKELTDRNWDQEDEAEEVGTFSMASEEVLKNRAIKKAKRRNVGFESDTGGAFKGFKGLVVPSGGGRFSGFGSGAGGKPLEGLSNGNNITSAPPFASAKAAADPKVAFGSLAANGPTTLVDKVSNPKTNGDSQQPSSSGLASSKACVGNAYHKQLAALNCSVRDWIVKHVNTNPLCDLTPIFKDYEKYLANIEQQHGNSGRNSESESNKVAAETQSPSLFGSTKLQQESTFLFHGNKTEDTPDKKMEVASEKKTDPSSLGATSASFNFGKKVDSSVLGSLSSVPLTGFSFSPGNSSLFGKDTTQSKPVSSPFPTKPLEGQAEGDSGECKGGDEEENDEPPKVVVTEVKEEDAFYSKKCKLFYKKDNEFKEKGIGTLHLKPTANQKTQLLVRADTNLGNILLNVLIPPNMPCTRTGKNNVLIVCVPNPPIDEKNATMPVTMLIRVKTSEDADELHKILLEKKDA

T2: endogenous Nup62 (human, UniProt P37198 2-522)
T2 construct: Detected with anti-Nup62
T2 sequence (looked up): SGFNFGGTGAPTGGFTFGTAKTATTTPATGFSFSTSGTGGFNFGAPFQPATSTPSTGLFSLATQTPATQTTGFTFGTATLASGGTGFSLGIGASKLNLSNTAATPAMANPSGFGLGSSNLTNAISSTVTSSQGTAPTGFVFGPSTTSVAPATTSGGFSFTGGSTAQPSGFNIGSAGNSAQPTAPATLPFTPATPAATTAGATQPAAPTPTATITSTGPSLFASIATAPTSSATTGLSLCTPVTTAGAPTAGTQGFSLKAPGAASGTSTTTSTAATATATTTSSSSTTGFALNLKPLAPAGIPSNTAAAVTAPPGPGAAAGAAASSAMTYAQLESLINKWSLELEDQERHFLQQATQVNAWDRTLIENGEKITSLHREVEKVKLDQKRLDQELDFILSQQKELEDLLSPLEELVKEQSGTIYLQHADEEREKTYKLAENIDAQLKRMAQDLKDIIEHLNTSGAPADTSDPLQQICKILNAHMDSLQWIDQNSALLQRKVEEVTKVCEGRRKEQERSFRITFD

B1: GFP-KPNB1 H1-4 (receptor)
chain: GGGSGGGSGGGSMELITILEKTVSPDRLELEAAQKFLERAAVENLPTFLVELSRVLANPGNSQVARVAAGLQIKNSLTSKDPDIKAQYQQRWLAIDANARREVKNYVLQTLGTETYRPSSASQCVAGIACAEIPVNQWPELIPQLVANVTNPNSTEHMKESTLEAIGYICQDIDPEQLQ
notes: not shown: GFP/EGFP tag (pEGFP-C1, Clontech)
B2: GFP-KPNB1 H1-8 (receptor)
chain: GGGSGGGSGGGSMELITILEKTVSPDRLELEAAQKFLERAAVENLPTFLVELSRVLANPGNSQVARVAAGLQIKNSLTSKDPDIKAQYQQRWLAIDANARREVKNYVLQTLGTETYRPSSASQCVAGIACAEIPVNQWPELIPQLVANVTNPNSTEHMKESTLEAIGYICQDIDPEQLQDKSNEILTAIIQGMRKEEPSNNVKLAATNALLNSLEFTKANFDKESERHFIMQVVCEATQCPDTRVRVAALQNLVKIMSLYYQYMETYMGPALFAITIEAMKSDIDEVALQGIEFWSNVCDEEMDLAIEASEAAEQGRPPEHTSKFYAKGALQYLVPILTQTLTKQDENDDDDDWNPCKAAGVCLMLLATCCED
notes: also called GFP-KPNB1 H1-8^WT; not shown: GFP/EGFP tag (pEGFP-C1, Clontech)
B3: GFP-KPNB1 H1-9 (receptor)
chain: GGGSGGGSGGGSMELITILEKTVSPDRLELEAAQKFLERAAVENLPTFLVELSRVLANPGNSQVARVAAGLQIKNSLTSKDPDIKAQYQQRWLAIDANARREVKNYVLQTLGTETYRPSSASQCVAGIACAEIPVNQWPELIPQLVANVTNPNSTEHMKESTLEAIGYICQDIDPEQLQDKSNEILTAIIQGMRKEEPSNNVKLAATNALLNSLEFTKANFDKESERHFIMQVVCEATQCPDTRVRVAALQNLVKIMSLYYQYMETYMGPALFAITIEAMKSDIDEVALQGIEFWSNVCDEEMDLAIEASEAAEQGRPPEHTSKFYAKGALQYLVPILTQTLTKQDENDDDDDWNPCKAAGVCLMLLATCCEDDIVPHVLPFIKEHIKNPDWRYRDAAVMAFGCILEGP
notes: also called N-terminal half of KPNB1 (HEAT repeats 1-9); not shown: GFP/EGFP tag (pEGFP-C1, Clontech)
B4: GFP-KPNB1 H1-3 (receptor)
chain: GGGSGGGSGGGSMELITILEKTVSPDRLELEAAQKFLERAAVENLPTFLVELSRVLANPGNSQVARVAAGLQIKNSLTSKDPDIKAQYQQRWLAIDANARREVKNYVLQTLGTETYRPSSASQCVAGIACAEIPVNQWP
notes: as for B1
B5: GFP-KPNB1 H1-7 (receptor)
chain: GGGSGGGSGGGSMELITILEKTVSPDRLELEAAQKFLERAAVENLPTFLVELSRVLANPGNSQVARVAAGLQIKNSLTSKDPDIKAQYQQRWLAIDANARREVKNYVLQTLGTETYRPSSASQCVAGIACAEIPVNQWPELIPQLVANVTNPNSTEHMKESTLEAIGYICQDIDPEQLQDKSNEILTAIIQGMRKEEPSNNVKLAATNALLNSLEFTKANFDKESERHFIMQVVCEATQCPDTRVRVAALQNLVKIMSLYYQYMETYMGPALFAITIEAMKSDIDEVALQGIEFWSNVCDEEMDLAIEASEAAEQGRPP
notes: as for B1
B6: GFP-KPNB1 H1 (receptor)
chain: {GFP}-GGGSGGGSGGGSMELITILEKTVSPDRLELEAAQKFLERAAVEN
modifications: also: GFP tag fused N-terminally, not in chain, (GGGS)3 linker in chain
notes: as for B1
B7: GFP-KPNB1 H1-6 (receptor)
chain: GGGSGGGSGGGSMELITILEKTVSPDRLELEAAQKFLERAAVENLPTFLVELSRVLANPGNSQVARVAAGLQIKNSLTSKDPDIKAQYQQRWLAIDANARREVKNYVLQTLGTETYRPSSASQCVAGIACAEIPVNQWPELIPQLVANVTNPNSTEHMKESTLEAIGYICQDIDPEQLQDKSNEILTAIIQGMRKEEPSNNVKLAATNALLNSLEFTKANFDKESERHFIMQVVCEATQCPDTRVRVAALQNLVKIMSLYY
notes: as for B1
B8: GFP-KPNB1 H1-2 (receptor)
chain: GGGSGGGSGGGSMELITILEKTVSPDRLELEAAQKFLERAAVENLPTFLVELSRVLANPGNSQVARVAAGLQIKNSLTSKDPD
notes: as for B1
B9: GFP-KPNB1 H1-5 (receptor)
chain: GGGSGGGSGGGSMELITILEKTVSPDRLELEAAQKFLERAAVENLPTFLVELSRVLANPGNSQVARVAAGLQIKNSLTSKDPDIKAQYQQRWLAIDANARREVKNYVLQTLGTETYRPSSASQCVAGIACAEIPVNQWPELIPQLVANVTNPNSTEHMKESTLEAIGYICQDIDPEQLQDKSNEILTAIIQGMRKEEPSNNVKLAATNALLNSLEFTKANF
notes: as for B1

The binders below were run against T1, endogenous Nup50 (assay: co-IP of GFP-tagged KPNB1 truncations, western blot).
Description: (§1) FIG. 21A) Schematic domain structure of KPNB1. KPNB1 is comprised of 19 HEAT repeats (H1-19). RanGTP and importin-α interact with H1-8 and H8-19, respectively. FG-Nups bind to two regions of KPNB1, H5-7 and H14-16. FIG. 21B) Lysates from HEK293T cells expressing GFP, GFP-KPNB1 full-length (FL), N-terminal fragments of KPNB1 (H1-9 . . . H1) or the C-terminal fragment of KPNB1 (H10-19) were subjected to immunoprecipitation with GFP-Trap magnetic beads. Whole cell lysates (input) and immunoprecipitates (IP) were subjected to western blot analysis using indicated antibodies. KPNB1 H1-8, the smallest fully active KPNB1 fragment in reducing TDP-43 aggregation, strongly interacts with FG-Nups and Ran, and weakly with importin-al in comparison with full-length KPNB1. FIG. 21C) (Top) Schematic domain structure of KPNB1 H1-8^mNIS harboring four missense mutations (1178A, F217A, Y255A, I263R) in the nucleoporin-interacting site (NIS). (Bottom) Lysates from HEK293T cells expressing GFP, GFP-KPNB1 H1-8^WT or H1-8^mNIS were subjected to immunoprecipitation with GFP-Trap magnetic beads. Whole cell lysates (input) and immunoprecipitates (IP) were subjected to western blot analysis using indicated antibodies. […] Hoechst staining was used to outline nuclei. Scale bar: 5 μm. […] Statistical analysis was performed using one-way ANOVA and Bonferroni's post hoc test (**p<0.01, ***p<0.001, n=4). FIG. 21F) IF of HEK293T cells co-expressing GFP-(GR)₁₀₀ with an empty plasmid (ctrl), FLAG-tagged KPNB1 H1-8^WT or H1-8^mNIS and stained for endogenous TDP-43. Unlike KPNB1 H1-8^mNIS, KPNB1 H1-8^WT prevents the sequestration of endogenous TDP-43 in cytoplasmic GR aggregates. Arrowheads point to cytoplasmic GR aggregates. Hoechst staining was used to outline nuclei. Scale bar: 5 μm.

binding result | Binder
no binding | B1
binds | B2
binds | B3
no binding | B4
no binding | B5
no binding | B6
no binding | B7
no binding | B8
no binding | B9

The binders below were run against endogenous Ran (human, UniProt P62826 2-216) in the same assay as above.
Description: as §1

binding result | Binder
no binding | B1
binds | B2
binds | B3
no binding | B4
no binding | B5
no binding | B6
no binding | B7
no binding | B8
no binding | B9

What follows are binders tested against endogenous importin-α1 (human, UniProt P52292 2-529) in the same assay as above.
Description: as §1

binding result | Binder
no binding | B1
binds | B3
no binding | B4
no binding | B5
no binding | B6
no binding | B7
no binding | B8
no binding | B9

The binders below were run against T2, endogenous Nup62 in the same assay as above.
Description: as §1

binding result | Binder
no binding | B1
binds | B2
binds | B3
no binding | B4
no binding | B5
no binding | B6
no binding | B7
no binding | B8
no binding | B9

Reference: US20240226230A1 (MAYO FOUNDATION FOR MEDICAL EDUCATION AND RESEARCH, published 2024)
